The target in test [1] is T1, full-length MD36 (SEQ ID NO:1) fused to yeast GAL4 transcription activated domain protein (yeast; human, UniProt Q9Y613 1-1164, limits assumed).
T1 construct: also called pACT-MD36; IRAP-BP protein
T1 sequence: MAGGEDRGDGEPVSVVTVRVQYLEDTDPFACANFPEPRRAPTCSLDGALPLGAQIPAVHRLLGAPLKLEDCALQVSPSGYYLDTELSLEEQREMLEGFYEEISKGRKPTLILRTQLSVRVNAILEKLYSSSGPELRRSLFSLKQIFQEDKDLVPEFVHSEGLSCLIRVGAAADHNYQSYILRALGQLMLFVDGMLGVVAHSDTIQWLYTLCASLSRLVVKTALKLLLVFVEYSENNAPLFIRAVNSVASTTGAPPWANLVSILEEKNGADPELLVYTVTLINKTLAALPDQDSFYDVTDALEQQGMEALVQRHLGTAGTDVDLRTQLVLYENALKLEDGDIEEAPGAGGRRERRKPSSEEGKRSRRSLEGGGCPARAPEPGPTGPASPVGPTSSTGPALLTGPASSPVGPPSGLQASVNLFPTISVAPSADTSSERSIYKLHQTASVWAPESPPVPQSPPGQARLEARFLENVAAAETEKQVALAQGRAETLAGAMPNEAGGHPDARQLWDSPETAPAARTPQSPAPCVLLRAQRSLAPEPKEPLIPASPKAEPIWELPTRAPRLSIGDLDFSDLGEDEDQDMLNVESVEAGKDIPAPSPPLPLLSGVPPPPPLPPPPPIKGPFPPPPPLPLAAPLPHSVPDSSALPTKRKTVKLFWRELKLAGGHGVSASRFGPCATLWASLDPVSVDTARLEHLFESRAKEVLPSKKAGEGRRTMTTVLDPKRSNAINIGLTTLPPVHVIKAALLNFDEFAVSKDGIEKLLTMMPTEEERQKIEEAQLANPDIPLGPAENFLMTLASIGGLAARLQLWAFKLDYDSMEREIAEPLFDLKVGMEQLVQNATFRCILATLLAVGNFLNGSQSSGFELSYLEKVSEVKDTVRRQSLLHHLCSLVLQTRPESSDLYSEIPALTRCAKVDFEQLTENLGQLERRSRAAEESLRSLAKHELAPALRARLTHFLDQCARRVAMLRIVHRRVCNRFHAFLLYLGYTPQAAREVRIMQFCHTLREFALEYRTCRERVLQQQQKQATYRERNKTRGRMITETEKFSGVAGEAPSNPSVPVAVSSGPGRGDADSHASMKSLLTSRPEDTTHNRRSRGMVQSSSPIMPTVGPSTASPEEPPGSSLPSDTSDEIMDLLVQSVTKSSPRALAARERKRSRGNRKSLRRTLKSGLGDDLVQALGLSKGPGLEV
Briefly: yeast two-hybrid, HIS3 reporter growth. An excerpt:
(§1) The protein-protein interaction between MD36 and the profilin family was detected by the yeast two-hybrid system. Based on pGBT9 (CLONTECH), expression plasmids were constructed to express the coding regions of profiling I (Evangelista et al., Science, 276, 118-122, 1997; Imamura et al., EMBO J., 16, 2745-2755, 1997; Tanaka, Biochem. Biophys. Res. Commun., 267, 479-481, 2000), profilin II (Schluter et al., Biohim. Biophys. Acta, 1359, 97-109, 1997), and profiling IIL in the form fused to yeast GAL4-DNA-binding domain protein under control of yeast ADH1 promoter. These plasmids were named pG-PFNI, pG-PFNII and pG-PFNIII, respectively (yeast selection marker was TRP1). On the other hand, expression plasmids that express the full-length sequence (SEQ ID NO:1) of MD36, which is IRAP-BP protein, or the coding region from this N-terminus to the sequence (SEQ ID NO:33) including the proline-rich domain in the form fused to yeast […] activated domain protein under control of yeast ADH1 promoter was constructed based on pACT2 (CLONTECH), and named pACT-MD36 and pACT-MD36NT, respectively (yeast selection marker was LEU2). pG-PFNI, pG-PFNII, pG-PFNIII or, pGBT9 for control was co-transfected to yeast Saccharomyces cerevisiae Y190 together with pACT-MD36 or pACT-MD36NT, and yeast strains bearing plasmids from the two were selected on SD medium free of tryptophan and leucine. […]

Test [2] concerns the target T2, MD36NT (MD36 from the N terminus to the proline-rich domain, SEQ ID NO:33) fused to yeast GAL4 transcription … (yeast; human, UniProt Q9Y613 1-640, limits assumed).
T2 construct: also called pACT-MD36NT
T2 sequence: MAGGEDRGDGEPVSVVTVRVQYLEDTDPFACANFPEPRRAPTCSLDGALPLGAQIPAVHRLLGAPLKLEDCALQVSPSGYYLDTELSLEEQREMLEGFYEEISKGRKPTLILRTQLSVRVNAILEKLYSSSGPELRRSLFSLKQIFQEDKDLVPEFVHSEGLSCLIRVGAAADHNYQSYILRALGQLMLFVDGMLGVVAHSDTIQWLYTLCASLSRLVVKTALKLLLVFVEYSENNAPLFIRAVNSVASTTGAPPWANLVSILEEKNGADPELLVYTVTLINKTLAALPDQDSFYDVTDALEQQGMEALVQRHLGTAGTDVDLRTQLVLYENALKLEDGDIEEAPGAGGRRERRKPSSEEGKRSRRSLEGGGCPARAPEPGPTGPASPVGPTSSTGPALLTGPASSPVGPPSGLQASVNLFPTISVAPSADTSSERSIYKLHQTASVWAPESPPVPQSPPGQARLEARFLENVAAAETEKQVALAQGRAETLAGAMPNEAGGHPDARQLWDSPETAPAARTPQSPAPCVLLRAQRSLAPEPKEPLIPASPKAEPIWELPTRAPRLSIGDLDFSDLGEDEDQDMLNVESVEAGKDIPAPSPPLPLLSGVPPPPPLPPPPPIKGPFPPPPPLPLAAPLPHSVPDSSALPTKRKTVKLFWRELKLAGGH
Kind of test: yeast two-hybrid, HIS3 reporter growth.
Text: as §1

Test [3] addresses T1, full-length MD36 (SEQ ID NO:1) fused to …. Briefly: yeast two-hybrid, HIS3 reporter growth on histidine-free medium.
Text: as §1

Test [4] addresses T2, MD36NT (MD36 from the N terminus to the …). The test is described as above.
Text: as §1

B1: profilin IIL fused to yeast GAL4-DNA-binding domain protein (other)
chain: MKLLSSIEQACDICRLKKLKCSKEKPKCAKCLKNNWECRYSPKTKRSPLTRAHLTEVESRLERLEQLFLLIFPREDLDMILKMDSLQDIKALLTGLFVQDNVNKDAVTDRLASVETDMPLTLRQHRISATSSSEESSNKGQRQLTVSMAGWQSYVDNLMCDGCCQEAAIVGYCDAKYVWAATAGGVFQSITPIEIDMIVGKDREGFFTNGLTLGAKKCSVIRDSLYVDGDCTMDIRTKSQGGEPTYNVAVGRAGRVLVFVMGKEGVHGGGLNKKAYSMAKYLRDSGF
notes: Profilin IIL was cloned from human skeletal muscle-derived cDNA; also called PFN IIL
With B1, the binding result in test [1] and in test [2] was “binds” throughout.

B2: profilin II fused to yeast GAL4-DNA-binding domain protein (other)
chain: MKLLSSIEQACDICRLKKLKCSKEKPKCAKCLKNNWECRYSPKTKRSPLTRAHLTEVESRLERLEQLFLLIFPREDLDMILKMDSLQDIKALLTGLFVQDNVNKDAVTDRLASVETDMPLTLRQHRISATSSSEESSNKGQRQLTVSAGWQSYVDNLMCDGCCQEAAIVGYCDAKYVWAATAGGVFQSITPIEIDMIVGKDREGFFTNGLTLGAKKCSVIRDSLYVDGDCTMDIRTKSQGGEPTYNVAVGRAGRALVIVMGKEGVHGGTLNKKAYELALYLRRSDV
notes: also called PFN II; pG-PFNII
For the molecule B2, the binding result in test [3] and in test [4] was “no binding” in each case.

For the origin of these results see patent US20040072742A1 (Takeda / Millennium, published 2004).
